The test system of this series is Escherichia coli TOP10. Put plainly: shrunken log2 fold change of peptide-encoding DNA abundance (4.5 h post-induction vs induction); higher = less antimicrobial activity (less host growth inhibition). Conditions: time post-induction: 4.5 h; library: site-saturation at positions 5, 18, 19, 20.
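Note: peptides expressed intracellularly from a pBAD plasmid library in pooled LB shake-flask culture, induced with 0.3% L-arabinose, DNA abundance read by NGS, three biological replicates, DESeq2 with apeglm shrinkage.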

As to RRIRKRPPRLPRPRPRPLMHPRP, the “shrunken log2 fold change” value turned out to be 0.0704.

As to RRIRGRPPRLPRPRPRPWCPPRP, the “shrunken log2 fold change” value was found to be 0.236. With RRIRGRPPRLPRPRPRPGSQPRP the figure was 0.722; with RRIRSRPPRLPRPRPRPMWDPRP, 0.293; with RRIRMRPPRLPRPRPRPPSYPRP, 0.358.

As to RRIRCRPPRLPRPRPRPPIWPRP, the “shrunken log2 fold change” value came out at 0.134.

As to RRIRPRPPRLPRPRPRPCWCPRP, the “shrunken log2 fold change” value is -0.0719. For RRIRNRPPRLPRPRPRPHELPRP, the “shrunken log2 fold change” value is -0.0632. With RRIRGRPPRLPRPRPRPPQLPRP, the “shrunken log2 fold change” value was found to be 0.824. Take RRIRSRPPRLPRPRPRPEEVPRP: the “shrunken log2 fold change” value worked out at 0.0829.

Regarding RRIRDRPPRLPRPRPRPRGPPRP, the “shrunken log2 fold change” value was found to be 0.366.

Turning to RRIRLRPPRLPRPRPRPCCVPRP, the “shrunken log2 fold change” value was 0.0472. In the case of RRIRPRPPRLPRPRPRPEFGPRP, the “shrunken log2 fold change” value was 0.327. Take RRIRERPPRLPRPRPRPCLMPRP: the “shrunken log2 fold change” value was -0.0535. With RRIRQRPPRLPRPRPRPYPTPRP the figure was 0.0734; with RRIRPRPPRLPRPRPRPWPGPRP, 0.367. Consider RRIRGRPPRLPRPRPRPSIAPRP, for which the “shrunken log2 fold change” value was 0.669. Turning to RRIRFRPPRLPRPRPRPANTPRP, the “shrunken log2 fold change” value is -0.209. RRIRMRPPRLPRPRPRPKSWPRP: the “shrunken log2 fold change” value was found to be 1.11. Regarding RRIRIRPPRLPRPRPRPNGHPRP, the “shrunken log2 fold change” value was -0.469. Turning to RRIRDRPPRLPRPRPRPEQCPRP, the “shrunken log2 fold change” value is -0.00146. As to RRIRARPPRLPRPRPRPDNDPRP, the “shrunken log2 fold change” value was -0.196. Turning to RRIRDRPPRLPRPRPRPANCPRP, the “shrunken log2 fold change” value was -0.00155. Then RRIRQRPPRLPRPRPRPNHEPRP, with -0.102. With RRIRRRPPRLPRPRPRPHKDPRP, the “shrunken log2 fold change” value is -0.11. For RRIRFRPPRLPRPRPRPTLGPRP, the “shrunken log2 fold change” value stood at 0.175. Then RRIRLRPPRLPRPRPRPAPKPRP, with 0.659. With RRIRYRPPRLPRPRPRPVGRPRP, the “shrunken log2 fold change” value was determined as 0.0286. In the case of RRIRTRPPRLPRPRPRPMTIPRP, the “shrunken log2 fold change” value was -0.137. As for RRIRHRPPRLPRPRPRPTWSPRP, the “shrunken log2 fold change” value came to 0.0859. Then RRIRCRPPRLPRPRPRPMSIPRP, with -0.484; and RRIRGRPPRLPRPRPRPKCEPRP, with 1.14. As for RRIRRRPPRLPRPRPRPRPTPRP, the “shrunken log2 fold change” value is 0.821. RRIRKRPPRLPRPRPRPSCQPRP: the “shrunken log2 fold change” value worked out at 0.176. As for RRIRQRPPRLPRPRPRPLVGPRP, the “shrunken log2 fold change” value amounted to 0.38. With RRIRTRPPRLPRPRPRPQTHPRP the figure was -0.322; with RRIRLRPPRLPRPRPRPKREPRP, 0.0937. As to RRIRQRPPRLPRPRPRPNIQPRP, the “shrunken log2 fold change” value was -0.228. On to RRIRNRPPRLPRPRPRPTKCPRP, for which the “shrunken log2 fold change” value was -0.16. With RRIRPRPPRLPRPRPRPNYSPRP, the “shrunken log2 fold change” value was -0.39.

As for RRIRKRPPRLPRPRPRPHTGPRP, the “shrunken log2 fold change” value is -0.0786. On to RRIRIRPPRLPRPRPRPEREPRP, for which the “shrunken log2 fold change” value came out at 0.0556. Turning to RRIRCRPPRLPRPRPRPREIPRP, the “shrunken log2 fold change” value came to 0.218.

Turning to RRIRWRPPRLPRPRPRPIHYPRP, the “shrunken log2 fold change” value is -1.07. On to RRIRTRPPRLPRPRPRPRDGPRP, for which the “shrunken log2 fold change” value stood at 0.456.

With RRIRHRPPRLPRPRPRPHRSPRP, the “shrunken log2 fold change” value was -0.0796. For the sequence RRIRQRPPRLPRPRPRPRLVPRP, the “shrunken log2 fold change” value came out at 0.211. In the case of RRIRERPPRLPRPRPRPMVMPRP, the “shrunken log2 fold change” value is -0.368.

For the sequence RRIRCRPPRLPRPRPRPGPAPRP, the “shrunken log2 fold change” value stood at 0.543. As for RRIRRRPPRLPRPRPRPWVCPRP, the “shrunken log2 fold change” value turned out to be 0.0925. For the sequence RRIRSRPPRLPRPRPRPCAHPRP, the “shrunken log2 fold change” value was -0.235. Turning to RRIRNRPPRLPRPRPRPYDRPRP, the “shrunken log2 fold change” value was -0.12. In the case of RRIRYRPPRLPRPRPRPYPEPRP, the “shrunken log2 fold change” value is -0.173. Turning to RRIRERPPRLPRPRPRPKACPRP, the “shrunken log2 fold change” value came out at 0.0288.

As for RRIRGRPPRLPRPRPRPMVAPRP, the “shrunken log2 fold change” value was found to be 1.17. As for RRIRYRPPRLPRPRPRPVEPPRP, the “shrunken log2 fold change” value was -0.384. With RRIRARPPRLPRPRPRPTKPPRP, the “shrunken log2 fold change” value was determined as 0.24.

For RRIRYRPPRLPRPRPRPLVIPRP, the “shrunken log2 fold change” value is -0.782. RRIRVRPPRLPRPRPRPSYGPRP: the “shrunken log2 fold change” value is -0.369. Take RRIRWRPPRLPRPRPRPPTCPRP: the “shrunken log2 fold change” value was determined as 0.614. With RRIRTRPPRLPRPRPRPIKHPRP the figure was -0.454; with RRIRRRPPRLPRPRPRPWLYPRP, 0.0161. Take RRIRYRPPRLPRPRPRPNIIPRP: the “shrunken log2 fold change” value is -1.01.

With RRIRMRPPRLPRPRPRPLPDPRP, the “shrunken log2 fold change” value worked out at 2.49. Then RRIRYRPPRLPRPRPRPASLPRP, with -0.662; and RRIRYRPPRLPRPRPRPNPDPRP, with -0.407. As for RRIRPRPPRLPRPRPRPVDLPRP, the “shrunken log2 fold change” value turned out to be 0.036.

Consider RRIRCRPPRLPRPRPRPWAPPRP, for which the “shrunken log2 fold change” value was -0.102.

On to RRIRWRPPRLPRPRPRPVFLPRP, for which the “shrunken log2 fold change” value was -0.0837. Consider RRIRRRPPRLPRPRPRPVRHPRP, for which the “shrunken log2 fold change” value came to 0.247. Consider RRIRGRPPRLPRPRPRPRTSPRP, for which the “shrunken log2 fold change” value stood at 0.763. For the sequence RRIRTRPPRLPRPRPRPFLVPRP, the “shrunken log2 fold change” value was -0.404. With RRIRARPPRLPRPRPRPVMNPRP the figure was -0.0562; with RRIRMRPPRLPRPRPRPVMNPRP, 0.196.

For RRIRKRPPRLPRPRPRPKPTPRP, the “shrunken log2 fold change” value was 0.7.

Take RRIRLRPPRLPRPRPRPMTIPRP: the “shrunken log2 fold change” value is 0.0154. With RRIRSRPPRLPRPRPRPTLNPRP the figure was -0.0269; with RRIRIRPPRLPRPRPRPTDDPRP, -0.217. With RRIRQRPPRLPRPRPRPYLCPRP the figure was -0.00822; with RRIRFRPPRLPRPRPRPWECPRP, -0.0123.

For the sequence RRIRMRPPRLPRPRPRPISCPRP, the “shrunken log2 fold change” value is -0.0229. Consider RRIRDRPPRLPRPRPRPIKEPRP, for which the “shrunken log2 fold change” value was -0.015. Regarding RRIRLRPPRLPRPRPRPESAPRP, the “shrunken log2 fold change” value was 0.228. As for RRIRYRPPRLPRPRPRPCYSPRP, the “shrunken log2 fold change” value was -0.00871. Then RRIRMRPPRLPRPRPRPDENPRP, with 2.68. With RRIRGRPPRLPRPRPRPGFTPRP the figure was 0.11. Regarding RRIRNRPPRLPRPRPRPKNCPRP, the “shrunken log2 fold change” value was -0.552. On to RRIRNRPPRLPRPRPRPIKRPRP, for which the “shrunken log2 fold change” value was 0.0699. On to RRIRSRPPRLPRPRPRPSDLPRP, for which the “shrunken log2 fold change” value is -0.254. RRIRKRPPRLPRPRPRPADTPRP: the “shrunken log2 fold change” value amounted to 1.03.

For the sequence RRIRIRPPRLPRPRPRPHFFPRP, the “shrunken log2 fold change” value is -0.237. In the case of RRIRHRPPRLPRPRPRPQTMPRP, the “shrunken log2 fold change” value was 3.11. Regarding RRIRFRPPRLPRPRPRPCTYPRP, the “shrunken log2 fold change” value was -0.384. Take RRIRWRPPRLPRPRPRPYLLPRP: the “shrunken log2 fold change” value was -0.508. Consider RRIRPRPPRLPRPRPRPPTMPRP, for which the “shrunken log2 fold change” value came out at 0.223. Consider RRIRVRPPRLPRPRPRPADRPRP, for which the “shrunken log2 fold change” value is 0.194. Then RRIRWRPPRLPRPRPRPTLHPRP, with 0.132. As to RRIRPRPPRLPRPRPRPWYKPRP, the “shrunken log2 fold change” value stood at 0.215.

RRIRERPPRLPRPRPRPFGFPRP: the “shrunken log2 fold change” value is -0.335. As for RRIRKRPPRLPRPRPRPYEAPRP, the “shrunken log2 fold change” value is -0.325. Then RRIRFRPPRLPRPRPRPRDVPRP, with 0.728.

RRIRVRPPRLPRPRPRPHTKPRP: the “shrunken log2 fold change” value was found to be 0.11. With RRIRKRPPRLPRPRPRPRYQPRP the figure was -0.0143; with RRIRARPPRLPRPRPRPHWWPRP, 0.5.

For the sequence RRIRIRPPRLPRPRPRPDKWPRP, the “shrunken log2 fold change” value was -0.318. Consider RRIRKRPPRLPRPRPRPIRPPRP, for which the “shrunken log2 fold change” value came to 0.012. With RRIRPRPPRLPRPRPRPWMKPRP the figure was -0.0651. As for RRIRTRPPRLPRPRPRPCSWPRP, the “shrunken log2 fold change” value worked out at 0.0291. With RRIRGRPPRLPRPRPRPHTAPRP the figure was 0.149; with RRIRARPPRLPRPRPRPQMRPRP, 0.62; with RRIRNRPPRLPRPRPRPRDFPRP, 0.0201. For RRIRCRPPRLPRPRPRPNSDPRP, the “shrunken log2 fold change” value is -0.255. With RRIRVRPPRLPRPRPRPEIQPRP the figure was 0.349. Consider RRIRIRPPRLPRPRPRPPWMPRP, for which the “shrunken log2 fold change” value is -0.0904. Turning to RRIRLRPPRLPRPRPRPEAIPRP, the “shrunken log2 fold change” value worked out at 0.0246. With RRIRPRPPRLPRPRPRPTFVPRP the figure was 0.012; with RRIRKRPPRLPRPRPRPWSIPRP, -0.304. On to RRIRLRPPRLPRPRPRPTRVPRP, for which the “shrunken log2 fold change” value came to 0.389. As for RRIRKRPPRLPRPRPRPWLHPRP, the “shrunken log2 fold change” value was 0.24. Consider RRIRARPPRLPRPRPRPLKSPRP, for which the “shrunken log2 fold change” value amounted to 0.012. On to RRIRSRPPRLPRPRPRPDHFPRP, for which the “shrunken log2 fold change” value was 0.0963.

For the sequence RRIRWRPPRLPRPRPRPTDEPRP, the “shrunken log2 fold change” value came to 0.582. As for RRIRVRPPRLPRPRPRPMWSPRP, the “shrunken log2 fold change” value was -0.0513. Take RRIRRRPPRLPRPRPRPIASPRP: the “shrunken log2 fold change” value came out at 0.432. RRIRWRPPRLPRPRPRPGYFPRP: the “shrunken log2 fold change” value is -0.152.

Values taken from the supplement of paper PMC9112550, “Optimization of the antimicrobial peptide Bac7 by deep mutational scanning” (BMC Biology, 2022).
